In publication PMC5923308:
Like-named read-outs stand apart in the source and are kept apart here.

Key:
[1] = target: crotoxin (CTX) from Crotalus durissus terrificus venom, heterodimer of CA and CB (Crotalus durissus terrificus); experiment: SPR; Biacore T200; CTX amine-coupled on a CM5 chip; VHH 2.5 to 0.002 µM in HBS-p (10 mM HEPES, 150 mM NaCl, 3.4 mM EDTA, 0.005% Tween 20, pH 7.4); 30 µL/min, 25 °C; 1:1 Langmuir model
[2] = target: crotoxin basic subunit CB (phospholipase A2) from Crotalus durissus terrificus (Crotalus durissus terrificus) (UniProt P0CG56); experiment: ELISA
[3] = target: crotoxin (CTX) from Crotalus durissus terrificus venom, heterodimer of CA and CB (Crotalus durissus terrificus)
[4] = target: crotoxin basic subunit CB (phospholipase A2) from Crotalus durissus terrificus (Crotalus durissus terrificus) (UniProt P0CG56)
[5] = target: crotoxin (CTX) from Crotalus durissus terrificus venom, heterodimer of CA and CB (Crotalus durissus terrificus); remark: listed apart in the source
[6] = target: crotoxin basic subunit CB (phospholipase A2) from Crotalus durissus terrificus (Crotalus durissus terrificus) (UniProt P0CG56); remark: listed apart in the source
[7] = target: crotoxin (CTX) from Crotalus durissus terrificus venom, heterodimer of CA and CB (Crotalus durissus terrificus); experiment: SPR; Biacore T200; CTX immobilised on a CM5 chip by EDC/NHS coupling (10 mM acetate, pH 5.5); VHHs injected at 2.5 to 0.002 uM in HBS-p (10 mM HEPES, 150 mM NaCl, 3.4 mM EDTA, 0.005% Tween 20, pH 7.4); 30 uL/min, 25 °C; 1:1 Langmuir model
[8] = target: crotoxin basic subunit CB (phospholipase A2) from Crotalus durissus terrificus (Crotalus durissus terrificus) (UniProt P0CG56); experiment: ELISA; remark: listed apart in the source

Work on VHH KF498604 (clone Cb-16) yielded a Kd [1] of 81.3 nM, a % of the unheated sample's ELISA signal after 1 h at 85 °C [2] of 85% and a reduction of plasma creatine kinase in Swiss mice 3 h after i.m. injection of CTX (1.5 µg) pre-incubated with VHH at 1:10, 1:20 and 1:40 (w/w) (46%, 63%, 78%), against CTX alone [3] of 78.8%. It also gave a reduction of LDH release from murine C2C12 myotubes after 3 h with CB (20 µg) pre-incubated with VHH at 1:2.5 (w/w), against CB alone [4] of 59.3%, an inhibition of phospholipase activity on acyl-NBD-PC fluorescent phospholipids, toxin pre-incubated with VHH 30 min at 37 °C, toxin/VHH 1:5 to 1:40 (w/w) [5] of 80% and an inhibition of phospholipase activity on acyl-NBD-PC fluorescent phospholipids, toxin pre-incubated with VHH 30 min at 37 °C, toxin/VHH 1:5 to 1:40 (w/w) [6] of 80%. For the same substance, the koff [7] was 0.00554 s⁻¹, the kon [7] was 68100 M⁻¹ s⁻¹ and the % of the unheated sample's ELISA signal after 1 h at 85 °C [8] was > 75%. The % of the unheated sample's ELISA signal after 1 h at 95 °C [8] was 100%.
